The assay has as its target Methanol dehydrogenase (MDH) of Bacillus brevis S1 strain (NCIMB 12524) (Bacillus brevis S1 strain (NCIMB 12524)). The assay can be described thus: cell-based or functional assay.

“Amd (Activator of methanol dehydrogenase), YqkG gene product of Bacillus subtilis 168 strain (from UniProt P54570 1-185)” came in with an NADH producing rate (increase of absorbance at 340 nm after methanol addition) in cell extract, against the pHY300PLK vector control of 5 times.

The record behind these values is US20030119155A1.
